± gives the standard deviation.
Experiment: protein stability index of a GFP-peptide fusion (GPS, HEK-293T) (PSI 1-6); higher = more stable
[1] = treatment: DMSO, c terminus: a fixed tail appended
[2] = treatment: MLN4924 1 uM, 8 h, c terminus: a fixed tail appended
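Note: 24-mer peptide tiles fused after GFP, lentivirally expressed, FACS-sorted into six equal bins by GFP/DsRed ratio, decoded by Illumina sequencing, PSI is the read-weighted mean bin number.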

Row | Sequence | protein stability index [1] | protein stability index [2] | protein stability index (treatment: DMSO, c terminus: native) | protein stability index (treatment: MLN4924 1 uM, 8 h, c terminus: native)
1 | VLAEGDNASRSLYPDAEDPQLGLD [PSD2] | 5.52 ± 0.25 | 5.34 ± 0.15 | – | –
2 | KLASHTRDTTGVSQMFPSSKARTK [FBF1] | 4.39 ± 0.16 | 4.58 ± 0.053 | – | –
3 | PATTVTSPNSTPAKTIDTSPPVDL [SNAP91] | 5.25 ± 0.23 | 5.25 ± 0.19 | – | –
4 | RTHTGEKPYKCTLCGENFSHRSNL [ZNF263] | 2.43 ± 0.27 | 2.79 ± 0.53 | – | –
5 | EAFALPDSLLVVLDMDEGTLSFIV [SPSB4] | 2.42 ± 0.21 | 2.53 ± 0.31 | – | –
6 | IDFIGQVHKTKEQFGQDGPISVHC [PTPRD] | 2.5 ± 0.26 | 2.81 ± 0.22 | – | –
7 | MGFVPHNGSLYGQASSERLGLDNR [ADAMTSL2] | 3.59 ± 0.38 | 3.66 ± 0.35 | – | –
8 | FWQTQYNNMNAVNLFFAWIKIFKY [PKD2L1] | 2.38 ± 0.38 | 2.19 ± 0.52 | – | –
9 | AKLVPSEREASPSNSCQDSTDTES [IKZF1] | 5.41 ± 0.41 | 5.53 ± 0.24 | – | –
10 | LYLIMEFLPGGDMMTLLMKKDTLT [STK38L] | 3.03 ± 0.13 | 2.94 ± 0.81 | – | –
11 | FFVVETLCIIWFSFELLVRFFACP [KCNA3] | 3.11 ± 0.52 | 2.74 ± 0.42 | – | –
12 | ETEEMLGKKQEYLENRIQREIALA [CHMP4C] | 4.44 ± 0.14 | 4.58 ± 0.29 | – | –
13 | AHEVLQELRDISSMAMEYFDEKIV [FBXO28] | 3.14 ± 0.19 | 3.26 ± 0.45 | – | –
14 | HEVKCQGKPLAGIYRKREEKRNAG [KMT5A] | 4.64 ± 0.55 | 5.06 ± 0.1 | – | –
15 | RRTYLGGAAGRSQEPEVPCAAVLP [RSPH3] | 4.37 ± 0.092 | 4.37 ± 0.18 | – | –
16 | CMVGLLLIALLTWGYIRYSGQYRE [ATL3] | 2.95 ± 0.25 | 3.04 ± 0.36 | – | –
17 | GLQRNLLVENIIDIYKQECSSRPL [TRIM63] | 2.71 ± 0.31 | 2.87 ± 0.19 | – | –
18 | GSGFGGGYGGGLGAGFGGGLGAGF [KRT16] | 2.27 ± 0.25 | 2.54 ± 0.67 | – | –
19 | TVRFCILGKESFYDTFHTVADMMY [HACD3] | 2.8 ± 0.69 | 2.85 ± 0.78 | – | –
20 | NETVNSIFAQGAPRSSLAESFFVD [ADAMTSL2] | 3.77 ± 0.086 | 3.86 ± 0.073 | – | –
21 | SRRLQLGSEENGRYFSLSLMSGAL [PCDHGC5] | 2.27 ± 0.4 | 2.3 ± 0.35 | – | –
22 | EVNSRCYQPEPFACGIEHCSVHYV [FBXO34] | 2.58 ± 0.18 | 2.33 ± 0.67 | – | –
23 | FESHDLLRKGFSCVKNELLPSHPL [POMP] | 2.92 ± 0.31 | 3.05 ± 0.42 | – | –

Row | Sequence | protein stability index [1] | protein stability index [2] | protein stability index (treatment: DMSO, c terminus: native) | protein stability index (treatment: MLN4924 1 uM, 8 h, c terminus: native)
24 | LELLEEVLALGLRTDVGITHQHWQ [RSAD1] | 2.3 ± 0.72 | 2.13 ± 0.23 | – | –
25 | DCMGIDRQHIPDTYLCERCQPRNL [KMT2E] | 3.13 ± 0.33 | 3.4 ± 0.4 | – | –
26 | LAFKNDIQFWNSRQSLEGLSVRSV [CLPTM1] | 2.45 ± 0.18 | 2.5 ± 0.14 | – | –
27 | RVQQHIESKLLGSNSSRMYFTQTL [MLH1] | 2.37 ± 0.23 | 2.29 ± 0.38 | – | –
28 | IKTAVNLPLERDAESFLLKSPIAP [CDC25B] | 3.23 ± 0.24 | 3.14 ± 0.36 | – | –
29 | SNMKSRYTTEFHELEKIGSGEFGS [WEE1] | 3.9 ± 0.31 | 4.04 ± 0.19 | – | –
30 | FLESTDSFNNELKRLCGLKVEVDM [SMARCE1] | 4.08 ± 0.23 | 4.22 ± 0.21 | – | –
31 | YKPNPQIYVKLIEECTDLQKEGEF [OAS1] | 3.54 ± 0.28 | 3.53 ± 0.19 | – | –
32 | ECIYIIEAAPRQCIELYFDEKYSI [NETO1] | 3.08 ± 0.46 | 2.95 ± 0.32 | – | –
33 | PSLGRVLPDPREACGSSSYVASIV [RBMY1A1] | 2.63 ± 0.36 | 2.94 ± 0.21 | – | –
34 | VASLERFSTYTSDKDENKLSEASG [ZC3H15] | 5.01 ± 0.42 | 4.96 ± 0.2 | – | –
35 | YFEGAPFPHPLWLRDTYKLWVPQP [PWWP2B] | 2.05 ± 0.24 | 2.18 ± 0.3 | – | –
36 | YQSGGRLKRPVNVPFDIFTEEVKF [KCNA4] | 2.42 ± 0.26 | 2.8 ± 0.57 | – | –
37 | PVRAAASSPVTTLTQTMHDLAGLG [CDC25B] | 4.03 ± 0.24 | 3.93 ± 0.19 | – | –
38 | VTKITLESFLAWKKRKRQEKIDKL [ZC3H15] | 2.78 ± 0.81 | 2.6 ± 0.47 | – | –
39 | NFDNPWNFQNIPKETELPFPKQIL [MIA2] | 2.74 ± 0.27 | 2.9 ± 0.4 | – | –
40 | FRRSLHDPDGLVATYISEVHEHDG [APMAP] | 4.02 ± 0.28 | 4.01 ± 0.3 | – | –
41 | LIVPFGLLYSEVTASSLVKINLQG [ADD1] | 3.03 ± 0.47 | 2.88 ± 0.36 | – | –
42 | AIQAFLDKCSAPKIWRTPNGKTIE [IQUB] | 2.36 ± 0.48 | 2.27 ± 0.22 | – | –
43 | KKKAIQEEEERDQALQAKASLTIP [YJU2B] | 5.27 ± 0.22 | 5.4 ± 0.21 | – | –
44 | NKWTVQYNVSPLSWNVAVKFLMAR [PTPN9] | 2.47 ± 0.54 | 2.15 ± 0.38 | – | –
45 | FSSDKAKAGSSEWLAVDGLVSPSN [ATF4] | 3.8 ± 0.26 | 4.08 ± 0.32 | – | –
46 | FFEDGDVQRHLYLQDVIMQVADVP [ZNF511] | 2.82 ± 0.29 | 2.81 ± 0.43 | – | –

Row | Sequence | protein stability index [1] | protein stability index [2] | protein stability index (treatment: DMSO, c terminus: native) | protein stability index (treatment: MLN4924 1 uM, 8 h, c terminus: native)
47 | SPSGAALPLPLSLAPPPLPLPAAA [ZBTB22] | 3.92 ± 0.25 | 4.2 ± 0.29 | – | –
48 | ELENLAAMDLELQKIAEKFSQRG [CHGB] | – | – | 2.62 ± 0.28 | 3.33 ± 0.64
49 | ATTAATAAATTTTTTSAATATTAP [SNAP91] | 5.36 ± 0.22 | 5.52 ± 0.22 | – | –
50 | GMDDFLGVYSMPAGTKVFEVPEMS [TLE6] | 3.08 ± 0.23 | 3.15 ± 0.25 | – | –
51 | KNYFQHREFSFTLKDDIYIRYQSF [PRIM1] | 2.22 ± 0.9 | 2.26 ± 0.87 | – | –
52 | AREGSSEPWLPLTDGRSPRRSRDP [PLEKHN1] | 5.17 ± 0.43 | 5.1 ± 0.098 | – | –
53 | NNLAASQLKLDHYRAALRSCSLVL [FKBP8] | 2.62 ± 0.11 | 2.35 ± 0.27 | – | –
54 | DQTALSLEECLRLLEATCPFGENA [NFE2L1] | 3.31 ± 0.72 | 3.8 ± 0.74 | – | –
55 | TITAPPSRVLQNGGDKLETMPLYL [SCD] | 3.5 ± 0.41 | 3.43 ± 0.29 | – | –
56 | PLDDALLSFAHANCTLIISYQKPK [DPCD] | 2.17 ± 0.2 | 2.22 ± 0.21 | – | –
57 | NKPTMSFKDYIQERSDPVEQGKPV [ETS2] | 4.75 ± 0.23 | 4.83 ± 0.26 | – | –
58 | DSHLGGNARGMGIRSPRPASVATW [CTBP1-DT] | 3.56 ± 0.24 | 3.63 ± 0.2 | – | –
59 | ERREALCRQLSESESSLEMDDERY [CCDC6] | 5.41 ± 0.11 | 5.27 ± 0.16 | – | –
60 | MAVRLAGGLQKMVALLNKTNVKFL [CTNNB1] | 2.871 ± 0.006 | 2.63 ± 0.76 | – | –
61 | IVCAQSSQSLWNRLSVLLNLLPAA [SMG5] | 2.8 ± 0.31 | 2.99 ± 0.28 | – | –
62 | ESEDDPVVKKIALREIRMLKQLKH [CDKL4] | 2.96 ± 0.52 | 3.08 ± 0.33 | – | –
63 | IDCKFNAESQGCNHEEDAGVRCNT [LOXL2] | 5.13 ± 0.22 | 5.22 ± 0.1 | – | –
64 | APWWFWLSLTGVSLAGALGVKFVG [POMT2] | 2.48 ± 0.23 | 2.27 ± 0.15 | – | –
65 | HDVRLNGSAAGHVLVKDNGLGCKD [TENT5C] | 4.88 ± 0.38 | 4.92 ± 0.16 | – | –
66 | DKVRALEEANADLEVKIRDWYQRQ [KRT16] | 4.01 ± 0.11 | 4.04 ± 0.27 | – | –
67 | STATSITLTWDSGNPEPVSYYIIQ [PTPRD] | 2.83 ± 0.59 | 2.9 ± 0.65 | – | –
68 | KRKMHLVFEYCDHTLLNELERNPN [CDKL4] | 2.26 ± 0.46 | 2.51 ± 0.51 | – | –
69 | GWFWVCPGGGDICMYRHALPPGFV [ZC3H15] | 2.83 ± 2.2 | 2.57 ± 0.8 | – | –

Row | Sequence | protein stability index [1] | protein stability index [2] | protein stability index (treatment: DMSO, c terminus: native) | protein stability index (treatment: MLN4924 1 uM, 8 h, c terminus: native)
70 | DMSYSIRHSISMPAMRNSPTFKSF [TPD52L1] | 2.94 ± 0.24 | 2.95 ± 0.32 | – | –
71 | LEVSQLEGSLQQPKAQSAMSPYLV [SMG5] | 3.37 ± 0.21 | 3.46 ± 0.21 | – | –
72 | FLVLEQFLTILPEELQSWVRGHHP [ZNF232] | 2.45 ± 0.55 | 2.5 ± 0.62 | – | –
73 | YDAYRTDLEELSLGPRDAGTRGRL [ARFIP2] | 4.1 ± 0.29 | 4.35 ± 0.15 | – | –
74 | DSLKPEQLDIEEEGRPGAATFHVG [TFE3] | 5.38 ± 0.093 | 4.96 ± 0.4 | – | –
75 | INQLTFIMDANQTYLVSERLEREE [FAF2] | 3.17 ± 0.15 | 3.15 ± 0.21 | – | –
76 | LIFFLFIGVILFSSAVYFAEADEP [KCNA4] | 2.19 ± 0.086 | 2.38 ± 0.29 | – | –
77 | EEGDEDDWASNKVMFKIGDLGHVT [WEE1] | 4.1 ± 0.23 | 4.39 ± 0.2 | – | –
78 | SEFQAALSRKVAELVHFLLLKYRA [MAGEA3] | 2.57 ± 0.56 | 2.48 ± 0.51 | – | –
79 | KCGIHSMFPLHLAALNAHSDCCRK [ANKRD44] | 2.36 ± 0.2 | 2.62 ± 0.33 | – | –
80 | ESIRRAQVSQVKGAARLALLQGAG [FCHSD1] | 3.45 ± 0.12 | 3.36 ± 0.52 | – | –
81 | SELEDLTEPEQRELKTKLTKLEAE [TPD52L3] | 5.31 ± 0.45 | 5.6 ± 0.15 | – | –
82 | NLLESKADGIEVSYNACGVLSHIM [ZER1] | 2.25 ± 0.08 | 2.31 ± 0.28 | – | –
83 | QSEHTMVLRCQLSAEEVRFPVSVT [C2CD2L] | 2.64 ± 0.33 | 2.49 ± 0.42 | – | –
84 | MGVVSLVFLIIYYLDPSVLSGVSC [ARL6IP1] | 3.18 ± 0.51 | 3.13 ± 0.33 | – | –
85 | AHRGRLNIQAGINENDFYDGAWCA [CPXM2] | 3.34 ± 0.86 | 3.29 ± 0.46 | – | –
86 | PDPGPSPEASHLRFRRFRFQEAAG [ZNF263] | 3.16 ± 0.13 | 3.23 ± 0.31 | – | –
87 | FMGTISDVKTNVQLLKGRVDNIST [CD207] | 3.02 ± 0.22 | 3.12 ± 0.32 | – | –
88 | AHFSPFLYYQSQELPNGSVKEAPA [PDZK1] | 3.45 ± 0.13 | 3.33 ± 0.13 | – | –
89 | LRPQVVTDDDGQAPEAKDGSSFSG [APMAP] | 5.22 ± 0.26 | 5.31 ± 0.15 | – | –

From the supplement of paper PMC10567573
